Target: DNMT3AC R882H (human, UniProt Q9Y6K1 612-912, R882H)
Assay: fluorescence anisotropy

Chain of DNMT3AC R882H (Q9Y6K1 612-912 R882H): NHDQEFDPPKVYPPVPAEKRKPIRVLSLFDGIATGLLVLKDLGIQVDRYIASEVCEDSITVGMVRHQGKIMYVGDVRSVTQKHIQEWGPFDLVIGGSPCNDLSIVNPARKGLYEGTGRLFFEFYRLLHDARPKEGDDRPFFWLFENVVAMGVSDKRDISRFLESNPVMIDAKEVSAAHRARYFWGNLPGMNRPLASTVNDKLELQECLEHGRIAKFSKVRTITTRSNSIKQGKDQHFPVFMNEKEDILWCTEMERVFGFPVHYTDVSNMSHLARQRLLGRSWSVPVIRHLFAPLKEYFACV

B1: Cy5-labeled 29mer with two CpG sites (dsDNA)
DNA 1: ACTTGCAACGGTCCTAACCGTCACCTCTT
DNA 2: AAGAGGTGACGGTTAGGACCGTTGCAAGT
- Kd: 209 ± 19 nM
